Starred links: 1 amine or outer side, 2 acyl side, 3 side chain; linkers in the order of their positions; H or OH if unused. Non-standard residues stand in square brackets, D forms with d. Groups on a side chain read outwards from the residue. No end group written: not given here. *: point of attachment. C18 diacid = O=C(O)CCCCCCCCCCCCCCCCC(=O)*; γGlu = O=C(O)[C@H](CCC(=O)[*:2])N[*:1]; AEEA = NCCOCCOCC(=O)O; Aib = CC(C)(N)C(=O)O A value given as a limit tells only on which side of the number the result lay.

Experiment [1] addresses T1, anti-target CRF1R receptor (UniProt P34998 24-415, limits assumed).
T1 sequence (looked up): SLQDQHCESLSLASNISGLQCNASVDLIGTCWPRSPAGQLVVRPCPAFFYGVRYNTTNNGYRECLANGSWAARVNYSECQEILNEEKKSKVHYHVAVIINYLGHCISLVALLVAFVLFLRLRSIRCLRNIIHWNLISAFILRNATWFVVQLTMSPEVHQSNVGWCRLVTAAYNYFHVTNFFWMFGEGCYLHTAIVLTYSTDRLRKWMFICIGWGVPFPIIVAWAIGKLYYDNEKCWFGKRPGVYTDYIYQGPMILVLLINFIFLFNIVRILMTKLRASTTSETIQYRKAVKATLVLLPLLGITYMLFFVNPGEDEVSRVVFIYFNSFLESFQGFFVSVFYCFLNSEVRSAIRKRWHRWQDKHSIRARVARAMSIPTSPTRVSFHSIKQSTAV
The experiment in a line: cell-based or functional assay.

The target of experiment [2] is rat CRF2R α receptor (rat, UniProt P47866 20-411). The experiment in a line: cell-based or functional assay.
rat CRF2R α receptor, sequence (P47866 20-411): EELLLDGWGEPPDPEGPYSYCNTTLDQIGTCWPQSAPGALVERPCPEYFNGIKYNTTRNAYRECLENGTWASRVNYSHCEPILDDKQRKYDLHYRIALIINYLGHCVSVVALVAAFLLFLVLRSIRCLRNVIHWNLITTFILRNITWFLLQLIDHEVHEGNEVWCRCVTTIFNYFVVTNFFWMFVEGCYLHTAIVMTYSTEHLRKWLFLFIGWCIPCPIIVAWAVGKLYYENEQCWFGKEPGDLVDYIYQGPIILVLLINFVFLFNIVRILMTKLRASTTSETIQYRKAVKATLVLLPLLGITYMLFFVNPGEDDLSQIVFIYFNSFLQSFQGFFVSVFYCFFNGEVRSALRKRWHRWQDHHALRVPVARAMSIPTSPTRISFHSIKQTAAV

B1: peptide of SEQ ID NO: 39 (peptide)
peptide: IVLSLDVPIKLK([AEEA-AEEA-γGlu-C18 diacid])QILLEQERQRKERQQAETNAQILAQV-NH2
modifications: N-terminus assumed
SMILES: CC[C@H](C)[C@H](N)C(=O)N[C@H](C(=O)N[C@@H](CC(C)C)C(=O)N[C@@H](CO)C(=O)N[C@@H](CC(C)C)C(=O)N[C@@H](CC(=O)O)C(=O)N[C@H](C(=O)N1CCC[C@H]1C(=O)N[C@H](C(=O)N[C@@H](CCCCN)C(=O)N[C@@H](CC(C)C)C(=O)N[C@@H](CCCCNC(=O)COCCOCCNC(=O)COCCOCCNC(=O)CC[C@H](NC(=O)CCCCCCCCCCCCCCCCC(=O)O)C(=O)O)C(=O)N[C@@H](CCC(N)=O)C(=O)N[C@H](C(=O)N[C@@H](CC(C)C)C(=O)N[C@@H](CC(C)C)C(=O)N[C@@H](CCC(=O)O)C(=O)N[C@@H](CCC(N)=O)C(=O)N[C@@H](CCC(=O)O)C(=O)N[C@@H](CCCNC(=N)N)C(=O)N[C@@H](CCC(N)=O)C(=O)N[C@@H](CCCNC(=N)N)C(=O)N[C@@H](CCCCN)C(=O)N[C@@H](CCC(=O)O)C(=O)N[C@@H](CCCNC(=N)N)C(=O)N[C@@H](CCC(N)=O)C(=O)N[C@@H](CCC(N)=O)C(=O)N[C@@H](C)C(=O)N[C@@H](CCC(=O)O)C(=O)N[C@H](C(=O)N[C@@H](CC(N)=O)C(=O)N[C@@H](C)C(=O)N[C@@H](CCC(N)=O)C(=O)N[C@H](C(=O)N[C@@H](CC(C)C)C(=O)N[C@@H](C)C(=O)N[C@@H](CCC(N)=O)C(=O)N[C@H](C(N)=O)C(C)C)[C@@H](C)CC)[C@@H](C)O)[C@@H](C)CC)[C@@H](C)CC)C(C)C)C(C)C
Turning to B1, in experiment [1], the “EC50[nM] 0% HSA (cAMP, CRF1R-overexpression CHO cells)” value (“EC50[nM] 0% HSA” for short) was > 1000 nM and the “Emax (%) (cAMP, CRF1R-overexpression CHO cells)” value (from here on “Emax (%)”) worked out at 13.3%. Moreover, the “EC50 [nM], 0% HSA (cAMP, A7R5 cells)” value in experiment [2] stood at 2.04 nM.

B2: peptide of SEQ ID NO: 24 (peptide)
peptide: IVLSLD[dV]PTKLK([AEEA-AEEA-γGlu-C18 diacid])QKLLKQERQRKEREQAEKNKRILERV-NH2
modifications: N-terminus assumed
SMILES: CC[C@H](C)[C@H](N)C(=O)N[C@H](C(=O)N[C@@H](CC(C)C)C(=O)N[C@@H](CO)C(=O)N[C@@H](CC(C)C)C(=O)N[C@@H](CC(=O)O)C(=O)N[C@@H](C(=O)N1CCC[C@H]1C(=O)N[C@H](C(=O)N[C@@H](CCCCN)C(=O)N[C@@H](CC(C)C)C(=O)N[C@@H](CCCCNC(=O)COCCOCCNC(=O)COCCOCCNC(=O)CC[C@H](NC(=O)CCCCCCCCCCCCCCCCC(=O)O)C(=O)O)C(=O)N[C@@H](CCC(N)=O)C(=O)N[C@@H](CCCCN)C(=O)N[C@@H](CC(C)C)C(=O)N[C@@H](CC(C)C)C(=O)N[C@@H](CCCCN)C(=O)N[C@@H](CCC(N)=O)C(=O)N[C@@H](CCC(=O)O)C(=O)N[C@@H](CCCNC(=N)N)C(=O)N[C@@H](CCC(N)=O)C(=O)N[C@@H](CCCNC(=N)N)C(=O)N[C@@H](CCCCN)C(=O)N[C@@H](CCC(=O)O)C(=O)N[C@@H](CCCNC(=N)N)C(=O)N[C@@H](CCC(=O)O)C(=O)N[C@@H](CCC(N)=O)C(=O)N[C@@H](C)C(=O)N[C@@H](CCC(=O)O)C(=O)N[C@@H](CCCCN)C(=O)N[C@@H](CC(N)=O)C(=O)N[C@@H](CCCCN)C(=O)N[C@@H](CCCNC(=N)N)C(=O)N[C@H](C(=O)N[C@@H](CC(C)C)C(=O)N[C@@H](CCC(=O)O)C(=O)N[C@@H](CCCNC(=N)N)C(=O)N[C@H](C(N)=O)C(C)C)[C@@H](C)CC)[C@@H](C)O)C(C)C)C(C)C
B2: in experiment [1], the “EC50[nM] 0% HSA” value is > 1000 nM and the “Emax (%)” value was 1.48%. Also, the “EC50 [nM], 0% HSA (cAMP, A7R5 cells)” value in experiment [2] was 4.94 nM.

B3: peptide of SEQ ID NO: 52 (peptide)
peptide: FTLSLDVPTKIK([AEEA-AEEA-γGlu-C18 diacid])QILLKQQKQKKERQQAEKNKQLLERV-NH2
modifications: N-terminus assumed
SMILES: CC[C@H](C)[C@H](NC(=O)[C@H](CCC(N)=O)NC(=O)[C@H](CCCCNC(=O)COCCOCCNC(=O)COCCOCCNC(=O)CC[C@H](NC(=O)CCCCCCCCCCCCCCCCC(=O)O)C(=O)O)NC(=O)[C@@H](NC(=O)[C@H](CCCCN)NC(=O)[C@@H](NC(=O)[C@@H]1CCCN1C(=O)[C@@H](NC(=O)[C@H](CC(=O)O)NC(=O)[C@H](CC(C)C)NC(=O)[C@H](CO)NC(=O)[C@H](CC(C)C)NC(=O)[C@@H](NC(=O)[C@@H](N)Cc1ccccc1)[C@@H](C)O)C(C)C)[C@@H](C)O)[C@@H](C)CC)C(=O)N[C@@H](CC(C)C)C(=O)N[C@@H](CC(C)C)C(=O)N[C@@H](CCCCN)C(=O)N[C@@H](CCC(N)=O)C(=O)N[C@@H](CCC(N)=O)C(=O)N[C@@H](CCCCN)C(=O)N[C@@H](CCC(N)=O)C(=O)N[C@@H](CCCCN)C(=O)N[C@@H](CCCCN)C(=O)N[C@@H](CCC(=O)O)C(=O)N[C@@H](CCCNC(=N)N)C(=O)N[C@@H](CCC(N)=O)C(=O)N[C@@H](CCC(N)=O)C(=O)N[C@@H](C)C(=O)N[C@@H](CCC(=O)O)C(=O)N[C@@H](CCCCN)C(=O)N[C@@H](CC(N)=O)C(=O)N[C@@H](CCCCN)C(=O)N[C@@H](CCC(N)=O)C(=O)N[C@@H](CC(C)C)C(=O)N[C@@H](CC(C)C)C(=O)N[C@@H](CCC(=O)O)C(=O)N[C@@H](CCCNC(=N)N)C(=O)N[C@H](C(N)=O)C(C)C
Turning to B3, in experiment [1], the “EC50[nM] 0% HSA” value was > 1000 nM and the “Emax (%)” value was found to be 5.3%. Also, the “EC50 [nM], 0% HSA (cAMP, A7R5 cells)” value in experiment [2] turned out to be 0.76 nM.

B4: peptide of SEQ ID NO: 46 (peptide)
peptide: IVLSLDVPIKLK([AEEA-AEEA-γGlu-C18 diacid])QILLEQAKQK[Aib]LRAQAETNVRILERV-NH2
modifications: N-terminus assumed
SMILES: CC[C@H](C)[C@H](N)C(=O)N[C@H](C(=O)N[C@@H](CC(C)C)C(=O)N[C@@H](CO)C(=O)N[C@@H](CC(C)C)C(=O)N[C@@H](CC(=O)O)C(=O)N[C@H](C(=O)N1CCC[C@H]1C(=O)N[C@H](C(=O)N[C@@H](CCCCN)C(=O)N[C@@H](CC(C)C)C(=O)N[C@@H](CCCCNC(=O)COCCOCCNC(=O)COCCOCCNC(=O)CC[C@H](NC(=O)CCCCCCCCCCCCCCCCC(=O)O)C(=O)O)C(=O)N[C@@H](CCC(N)=O)C(=O)N[C@H](C(=O)N[C@@H](CC(C)C)C(=O)N[C@@H](CC(C)C)C(=O)N[C@@H](CCC(=O)O)C(=O)N[C@@H](CCC(N)=O)C(=O)N[C@@H](C)C(=O)N[C@@H](CCCCN)C(=O)N[C@@H](CCC(N)=O)C(=O)N[C@@H](CCCCN)C(=O)NC(C)(C)C(=O)N[C@@H](CC(C)C)C(=O)N[C@@H](CCCNC(=N)N)C(=O)N[C@@H](C)C(=O)N[C@@H](CCC(N)=O)C(=O)N[C@@H](C)C(=O)N[C@@H](CCC(=O)O)C(=O)N[C@H](C(=O)N[C@@H](CC(N)=O)C(=O)N[C@H](C(=O)N[C@@H](CCCNC(=N)N)C(=O)N[C@H](C(=O)N[C@@H](CC(C)C)C(=O)N[C@@H](CCC(=O)O)C(=O)N[C@@H](CCCNC(=N)N)C(=O)N[C@H](C(N)=O)C(C)C)[C@@H](C)CC)C(C)C)[C@@H](C)O)[C@@H](C)CC)[C@@H](C)CC)C(C)C)C(C)C
Regarding B4, in experiment [1], the “EC50[nM] 0% HSA” value is > 1000 nM and the “Emax (%)” value was 5.88%. The “EC50 [nM], 0% HSA (cAMP, A7R5 cells)” value in experiment [2] was 8.97 nM.

B5: peptide of SEQ ID NO: 53 (peptide)
peptide: FTLSLDVPTKIK([AEEA-AEEA-γGlu-C18 diacid])QILLKQQKQKKERQQAETNKQLLERV-NH2
modifications: N-terminus assumed
SMILES: CC[C@H](C)[C@H](NC(=O)[C@H](CCC(N)=O)NC(=O)[C@H](CCCCNC(=O)COCCOCCNC(=O)COCCOCCNC(=O)CC[C@H](NC(=O)CCCCCCCCCCCCCCCCC(=O)O)C(=O)O)NC(=O)[C@@H](NC(=O)[C@H](CCCCN)NC(=O)[C@@H](NC(=O)[C@@H]1CCCN1C(=O)[C@@H](NC(=O)[C@H](CC(=O)O)NC(=O)[C@H](CC(C)C)NC(=O)[C@H](CO)NC(=O)[C@H](CC(C)C)NC(=O)[C@@H](NC(=O)[C@@H](N)Cc1ccccc1)[C@@H](C)O)C(C)C)[C@@H](C)O)[C@@H](C)CC)C(=O)N[C@@H](CC(C)C)C(=O)N[C@@H](CC(C)C)C(=O)N[C@@H](CCCCN)C(=O)N[C@@H](CCC(N)=O)C(=O)N[C@@H](CCC(N)=O)C(=O)N[C@@H](CCCCN)C(=O)N[C@@H](CCC(N)=O)C(=O)N[C@@H](CCCCN)C(=O)N[C@@H](CCCCN)C(=O)N[C@@H](CCC(=O)O)C(=O)N[C@@H](CCCNC(=N)N)C(=O)N[C@@H](CCC(N)=O)C(=O)N[C@@H](CCC(N)=O)C(=O)N[C@@H](C)C(=O)N[C@@H](CCC(=O)O)C(=O)N[C@H](C(=O)N[C@@H](CC(N)=O)C(=O)N[C@@H](CCCCN)C(=O)N[C@@H](CCC(N)=O)C(=O)N[C@@H](CC(C)C)C(=O)N[C@@H](CC(C)C)C(=O)N[C@@H](CCC(=O)O)C(=O)N[C@@H](CCCNC(=N)N)C(=O)N[C@H](C(N)=O)C(C)C)[C@@H](C)O
As to B5, in experiment [1], the “EC50[nM] 0% HSA” value was > 1000 nM and the “Emax (%)” value is 4.14%. In experiment [2], the “EC50 [nM], 0% HSA (cAMP, A7R5 cells)” value is 1.32 nM.
